The results in this text go back to patent publication US20210101964A1 (UCB, published 2021).

B1: rat-mouse chimeric recombinant antibody 5811 mFab (Fab, V domains shown)
VH: EMQLVESGGGLVQPKESLKISCAASGFTFNNAAMYWVRQAPGKGLEWVARIRTKPNNYATSYADSVKGRFTISRDDSKSMVYLQMDNLKSEDTAMYYCTADYSRGDRWGQGVMVTVSS
VL: NIQMTQSPPVLSASVGDRVTLSCKASQNINKNLDWYQQKHGEAPKLLMYYANNLQTGIPSRFSGSGSGTDYTLTISSLQPEDVATYYCYQYKNGWTFGGGTKLELKR

Assay [1] concerns the target B1. Briefly: competitive SPR (Biacore 3000): 50 nM 5811 mFab pre-incubated with 1 µM peptide, injected over immobilised human alpha synuclein monomer and fibrils.
Experimental: Recombinant human alpha synuclein monomer and pre-formed alpha synuclein fibrils were immobilized on a CM5 chip using a Biacore 3000 instrument (GE Healthcare). Following activation of the carboxymethyl dextran surface by injection of 100 μl of a fresh 1:1 (v/v) mixture of 50 mM N-hydroxysuccimide and 200 mM 1-ethyl-3-(3-dimethylaminopropyl)-carbodiimide at a flow rate of 10 μl/min HBS-EP (GE Healthcare) as running buffer, coupling was achieved by injecting 100 μl of monomer and fibrils, at 5 μM in 10 mM acetate pH 5.0, over separate flow cells. A reference flow cell was activated in the same manner and then all flow cell surfaces were deactivated with a 50 μl pulse of 1 M ethanolamine.HCl pH 8.5.
Peptide solutions were prepared in running buffer at 100 μM and a peptide blank control prepared as a 1 in 100 dilution of DMSO in running buffer. […] Sensograms were recorded for each sample by injecting 30 μl of the mixture at 10 μl/min and recording a report point 5 seconds before the end of the injection. The chip was regenerated at the end of each cycle by two 10 μl injections of 40 mM HCl and one injection of 5 mM NaOH. Control cycles were alternated with peptide cycles.
Assay [2] has as its target T1, recombinant human alpha synuclein fibrils (human, UniProt P37840 1-140). As to the kind of experiment: SPR (Biacore T200), antigen amine-coupled to CM5 chip, Fab as analyte, 1:1 model.
Experimental: (§1) Interaction kinetics were determined by using surface plasmon resonance technology on a Biacore T200 instrument. Three different ligands including recombinant full-length human alpha synuclein monomer, purified recombinant human alpha synuclein fibrils, and purified recombinant mouse alpha synuclein fibrils, prepared as described herein, were each immobilized on three different flow cells of a CM5 chip surface using amine-coupling chemistry. The three ligands were prepared in 10 mM NaAc, pH 3.5, and immobilized onto separate flow cell surfaces to reach an immobilization level of about 30 response units (RU) for alpha synuclein monomer, about 40 RU for human alpha synuclein fibrils, and about 300 RU for mouse alpha synuclein fibrils respectively, at a flow rate of 10 μl/min. The buffer HBS-EP+(GE healthcare Bio-Sciences AB) was used as running buffer for both ligand immobilization and kinetics assay. […] The surface was regenerated by one injection of 50 mM HCl for 90 s at 10 μl/min, and another injection of 50 mM HCl for 60 s at 10 μl/min. The data were analyzed using the Biacore T200 evaluation software (version 3.0) using the bivalent analyte model with assumed no bulk contribution (RI=0) and global Rmax for mIgG1 format, and 1:1 model with flexible bulk contribution (local RI) and global Rmax.
Assay [3] addresses T2, recombinant mouse alpha synuclein fibrils (mouse, UniProt O55042 1-140). The description is as above.
Experimental: as §1
The target of assay [4] is T3, recombinant full-length human alpha synuclein monomer (human, UniProt P37840 1-140). The assay is described as above.
Experimental: as §1
The target in assay [5] is T4, biotinylated peptide corresponding to residues 117 to 126 of human alpha synuclein (PVDPDNEAYE) (human, also: biotinylated, position not given here).
T4 construct: Captured on streptavidin plates for the ELISA
T4 peptide: PVDPDNEAYE
Briefly: streptavidin-capture ELISA on biotinylated peptide PVDPDNEAYE, HRP secondary antibody, TMB, OD 630 nm.

The target of assay [6] is T5, human beta synuclein (rPeptide) (human, UniProt Q16143 1-134).
T5 construct: also called rPeptide beta synuclein; human betα-synuclein
T5 sequence (Q16143 whole entry): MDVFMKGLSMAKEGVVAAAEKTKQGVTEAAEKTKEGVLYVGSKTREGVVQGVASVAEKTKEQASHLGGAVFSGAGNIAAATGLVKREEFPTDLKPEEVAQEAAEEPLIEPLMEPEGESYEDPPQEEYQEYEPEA
As to the kind of experiment: Western blot.
Experimental: The binding of antibodies raised against human alpha synuclein to human beta synuclein were tested by Western blot using rPeptide beta synuclein. […] The membrane was blocked in PBS with 3% BSA and 0.1% Tween20. […] The blot was washed extensively in PBS with 0.1% Tween20, PBS and water. Chemi-luminescence was measured after addition of ECL Western blot substrate (Pierce).
The blot was washed after 1-hour incubation at room temperature with 0.1% Tween in PBS.

Assay [7] concerns the target T1, recombinant human alpha synuclein …. As to the kind of experiment: SPR (Biacore T200), antigen amine-coupled to CM5 chip, IgG as analyte, bivalent analyte model (KD1).
Experimental: as §1
The target in assay [8] is T2, recombinant mouse alpha synuclein …. Described as above.
Experimental: as §1
Assay [9] addresses T3, recombinant full-length human alpha …. The description is as above.
Experimental: as §1
The target of assay [10] is T1, recombinant human alpha synuclein …. Briefly: kinetics on alpha synuclein fibrils; method not named in Example 4 (ka1/kd1 as in the Biacore bivalent analyte model).
Assay [11] shares this target. Briefly: cell-based or functional assay.
Assay [12] shares this target. As to the kind of experiment: kinetics on human fibril; method not named (same values as Table 5).
Assay [13] shares this target. Briefly: cell-based or functional assay. The source holds these as a separate data set.

Ends that are not written are not given here. Bounds are passed on as bounds.

For Ac-QEGILEDMPV-NH2 [peptide AS109-118], the binding result in assay [1] was “no binding (tested: 1 µM)”.
For the molecule Ac-GILEDMPVDP-NH2 [peptide AS111-120], the binding result in [1] is “no binding (tested: 1 µM)”.
As for Ac-MPSEEGYQDY-NH2 [peptide AS127-136], the binding result in [1] is “no binding (tested: 1 µM)”.
Regarding Ac-LEDMPVDPDN-NH2 [peptide AS113-122], the binding result in [1] was “binds”.
Same read-out and setting: under Ac-DPDNEAYEMP-NH2 [peptide AS119-128] stands “binds”; under Ac-SEEGYQDYEP-NH2 [129-138], “no binding (tested: 1 µM)”.
As for B1, the Kd in [2] stood at 0.6 nM; in assay [3], 42.9 nM; in assay [4], 0.29 nM. Also, the “EC50 (read off the curve)” value in assay [5] was ~0.4 µg/mL.

B2: rat-mouse chimeric recombinant antibody 5811 mIgG1 (antibody, V domains shown)
VH: EMQLVESGGGLVQPKESLKISCAASGFTFNNAAMYWVRQAPGKGLEWVARIRTKPNNYATSYADSVKGRFTISRDDSKSMVYLQMDNLKSEDTAMYYCTADYSRGDRWGQGVMVTVSS
VL: NIQMTQSPPVLSASVGDRVTLSCKASQNINKNLDWYQQKHGEAPKLLMYYANNLQTGIPSRFSGSGSGTDYTLTISSLQPEDVATYYCYQYKNGWTFGGGTKLELKR
As for B2, the binding result in [6] was “no binding (tested: 1 micro gram of synuclein per lane)”. Moreover, the Kd was 0.03 nM in [7], 119 nM in [8] and 0.53 nM in [9].

B3: Chimeric rat-human 5811 antibody (antibody, V domains shown)
VH: EMQLVESGGGLVQPKESLKISCAASGFTFNNAAMYWVRQAPGKGLEWVARIRTKPNNYATSYADSVKGRFTISRDDSKSMVYLQMDNLKSEDTAMYYCTADYSRGDRWGQGVMVTVSS
VL: NIQMTQSPPVLSASVGDRVTLSCKASQNINKNLDWYQQKHGEAPKLLMYYANNLQTGIPSRFSGSGSGTDYTLTISSLQPEDVATYYCYQYKNGWTFGGGTKLELK
notes: It was prepared like the humanized antibodies, with the human kappa constant region (Km3) and human gamma-4 with S241P (IgG4P); also called parental rat-human antibody
As to B3, the Kd in [10] was determined as 0.0156 nM.

B4: Antibody 5811gL8gH4 IgG4P (antibody, V domains shown)
VH: EVQLVESGGGLVKPGGSLRLSCAASGFTFNNAAMYWVRQAPGKGLEWVARIRTKPNNYATSYADSVKGRFTISRDDSKNTLYLQMNSLKTEDTAVYYCTADYSRGDRWGQGTMVTVSS
VL: DIQMTQSPSSLSASVGDRVTITCKASQNINKNLDWYQQKPGKAPKLLIYYANNLQTGVPSRFSGSGSGTDFTLTISSLQPEDFATYYCYQYKNGWTFGQGTKVEIKR
Consider B4, for which, in [10], the Kd is 0.0159 nM, the koff is 5.17e-05 s⁻¹ and the on-rate constant (kon) was determined as 3.26e+06 M⁻¹ s⁻¹. Further, in assay [11], the “IC50, aggregation assay on mouse primary neurons (pSer129 alpha synuclein signal)” value (from here on “IC50, aggregation assay”) was < 5 nM and the “IC50, cell-based aggregation assay (HEK cells expressing alpha synuclein, % pSer129+ cells)” value was ≤ 5 nM.

B5: Antibody 5811gL14gH4 IgG4P (antibody, V domains shown)
VH: EVQLVESGGGLVKPGGSLRLSCAASGFTFNNAAMYWVRQAPGKGLEWVARIRTKPNNYATSYADSVKGRFTISRDDSKNTLYLQMNSLKTEDTAVYYCTADYSRGDRWGQGTMVTVSS
VL: DIQMTQSPSSLSASVGDRVTITCKASQNINKNLDWYQQKPGKAPKLLIYYANNLQTGVPSRFSGSGSGTDFTLTISSLQPEDFATYYCYQYKNAWTFGQGTKVEIKR
Consider B5, for which, in [10], the Kd turned out to be 0.0185 nM, the koff is 2.04e-05 s⁻¹ and the on-rate (kon) was found to be 1.1e+06 M⁻¹ s⁻¹. In addition, in assay [11], the “IC50, aggregation assay” value is < 5 nM and the “IC50, cell-based aggregation assay (HEK cells expressing alpha synuclein, % pSer129+ cells)” value was ≤ 5 nM.

B6: Antibody 5811gL5gH4 IgG4P (antibody, V domains shown)
VH: EVQLVESGGGLVKPGGSLRLSCAASGFTFNNAAMYWVRQAPGKGLEWVARIRTKPNNYATSYADSVKGRFTISRDDSKNTLYLQMNSLKTEDTAVYYCTADYSRGDRWGQGTMVTVSS
VL: DIQMTQSPSSLSASVGDRVTITCKASQNINKNLDWYQQKPGKAPKLLIYYANNLQTGVPSRFSGSGSGTDYTLTISSLQPEDFATYYCYQYKNGWTFGQGTKVEIKR
notes: also called VR5811
With B6, in assay [12], the Kd came to 0.015 nM, the koff was found to be 4.1e-05 s⁻¹ and the kon is 2.74e+06 M⁻¹ s⁻¹. Besides, in assay [10], the Kd is 0.015 nM, the koff was 4.1e-05 s⁻¹ and the kon worked out at 2.74e+06 M⁻¹ s⁻¹. For the same molecule, in assay [11], the “IC50, aggregation assay” value is < 5 nM and the “IC50, cell-based aggregation assay (HEK cells expressing alpha synuclein, % pSer129+ cells)” value is ≤ 5 nM. In addition, in assay [13], the “IC50 (nM), cell-based aggregation assays” value is < 5 nM.
Turning to Ac-EAYEMPSEEG-NH2 [peptide AS123-132], in [1], the binding result is given as “no binding (tested: 1 µM)”.
For the molecule Ac-EGYQDYEPEA-OH (also called AS131-140) [131-140], the binding result in assay [1] is given as “no binding (tested: 1 µM)”.
With Ac-YEMPSEEGYQ-NH2 [peptide AS125-134], the binding result in assay [1] is “no binding (tested: 1 µM)”.

B7: peptide AS104-113 (peptide)
peptide: Ac-EEGAPQEGIL-NH2
notes: Synthetic peptide of human alpha synuclein
B7: the binding result in assay [1] is “no binding (tested: 1 µM)”.
Consider Ac-DNEAYEMPSE-NH2 [peptide AS121-130], for which the binding result in assay [1] is recorded as “no binding (tested: 1 µM)”.
Still for that read-out and setting: under Ac-DMPVDPDNEA-NH2 [peptide AS115-124] stands “binds”.
